We go through 1 molecule from CN111349168A (DONGGUAN PENGZHI BIOTECHNOLOGY CO LTD, dated 2020).

For orientation: Kd means a measure of binding affinity in units of concentration. The low end stands for tighter binding, the high end for weaker binding. Usually koff stands for the first-order rate constant of dissociation. A low value points to slow dissociation. The kon is a measure of how fast the partners come together. High values mean fast association, low ones slow association.

In this assay the target is T1, CKMB(PAJ18) (human, UniProt P06732 1-381; P12277 1-381).
T1 construct: Antigen reagent named only as CKMB(PAJ18); Its source and construct are not described; also called 杂化型肌酸激酶同工酶; CKMB抗原
T1 sequence (P06732 whole entry, chain 1 of 2): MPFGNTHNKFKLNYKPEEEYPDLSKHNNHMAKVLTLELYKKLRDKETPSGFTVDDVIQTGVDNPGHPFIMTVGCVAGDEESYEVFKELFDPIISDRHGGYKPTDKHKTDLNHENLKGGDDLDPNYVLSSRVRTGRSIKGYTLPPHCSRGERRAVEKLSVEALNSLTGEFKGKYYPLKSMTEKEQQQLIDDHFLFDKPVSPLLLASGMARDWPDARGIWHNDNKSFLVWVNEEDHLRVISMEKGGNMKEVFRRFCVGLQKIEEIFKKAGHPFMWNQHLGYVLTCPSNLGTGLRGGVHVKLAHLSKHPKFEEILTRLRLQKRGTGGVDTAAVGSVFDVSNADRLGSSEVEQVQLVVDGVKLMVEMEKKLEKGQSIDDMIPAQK
T1 sequence (P12277 whole entry, chain 2 of 2): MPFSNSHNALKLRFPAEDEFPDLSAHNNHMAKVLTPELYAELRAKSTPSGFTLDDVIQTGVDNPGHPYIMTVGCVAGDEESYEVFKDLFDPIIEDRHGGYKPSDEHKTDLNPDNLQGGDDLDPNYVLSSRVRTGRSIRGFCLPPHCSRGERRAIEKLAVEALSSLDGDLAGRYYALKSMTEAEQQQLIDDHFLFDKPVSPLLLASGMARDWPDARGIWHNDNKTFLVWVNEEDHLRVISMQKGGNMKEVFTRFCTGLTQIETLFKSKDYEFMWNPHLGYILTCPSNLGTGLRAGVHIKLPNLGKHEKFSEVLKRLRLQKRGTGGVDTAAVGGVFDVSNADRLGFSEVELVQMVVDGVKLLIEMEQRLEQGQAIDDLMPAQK
Nature of the assay: biolayer interferometry, antibody captured on AMC sensor, CKMB in solution. A general note: In BLI a coated tip is dipped into the sample, and binding shifts an interference pattern.

B1: Anti-CKMB 10C5 recombinant antibody (WT) (antibody, V domains shown)
VH: DVQLQESGPGLVKPSQTMSLTCTVTGVSITTGTDRWSWIRQFPGNKLEWIGYIFYSGTLTYNPSVTSRTTITRDTSKNQFFLEMNSLTAEDTATYYCARERTYYPYGYFDVFGTGTTVTVSS
VL: DIQMNQSPSSLSASLGDTITITCHGSNNINIWLSWYQQKPGNTPKLLIYKGSDIHTGVSSRFSGSGSGTAFTLTISSLQPEDIATYYCQQAQSYAWTWGGGTKLEIK
B1 showed a Kd of 77.6 nM, a koff of 0.00512 s⁻¹ and an on-rate constant (kon) of 66000 M⁻¹ s⁻¹.
